These are literature values, as cited in PMC6776250.

For the data set, the target named is RNase Y (Bacillus subtilis) (UniProt O31774). In words: SPR. In general terms: In SPR one partner is held on a chip, and binding of the other changes the refractive index at the surface.
UniProt O31774, sequence (O31774 whole entry): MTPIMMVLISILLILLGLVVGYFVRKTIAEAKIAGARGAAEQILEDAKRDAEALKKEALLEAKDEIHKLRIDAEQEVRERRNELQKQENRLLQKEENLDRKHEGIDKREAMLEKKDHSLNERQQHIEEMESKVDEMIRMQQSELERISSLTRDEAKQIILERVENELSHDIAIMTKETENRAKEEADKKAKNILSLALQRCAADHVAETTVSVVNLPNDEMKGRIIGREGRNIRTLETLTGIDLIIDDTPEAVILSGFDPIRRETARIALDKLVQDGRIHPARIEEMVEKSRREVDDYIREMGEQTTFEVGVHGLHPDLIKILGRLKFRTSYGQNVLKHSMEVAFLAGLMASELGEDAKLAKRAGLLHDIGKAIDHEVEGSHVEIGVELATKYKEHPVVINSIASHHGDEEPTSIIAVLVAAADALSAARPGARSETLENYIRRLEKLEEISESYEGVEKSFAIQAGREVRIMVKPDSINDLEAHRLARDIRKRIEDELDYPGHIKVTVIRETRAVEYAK

In the case of PNPase (from UniProt P50849), the Kd (as a rule, a measure of binding affinity in units of concentration) was 5 nM.
